# According to patent EP4707298A2 (INSTITUTO BUTANTAN, dated 2026):
# Columns and labels:
# [1] = target: rFGF2 antigen (recombinant fibroblast growth factor 2) (UniProt P09038); assay: SPR kinetic affinity assay
# [2] = target: T1, rFGF2 antigen (recombinant fibroblast growth factor 2) (UniProt P09038 143-288, limits assumed); assay: SPR kinetic affinity assay
# T1 construct: also called FGF2 protein
# T1 sequence (P09038 143-288 limits assumed): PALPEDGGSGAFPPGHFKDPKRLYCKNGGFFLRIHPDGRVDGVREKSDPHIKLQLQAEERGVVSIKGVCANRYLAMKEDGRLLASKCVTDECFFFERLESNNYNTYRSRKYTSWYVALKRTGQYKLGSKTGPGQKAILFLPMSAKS
# Chain of rFGF2 antigen (recombinant fibroblast growth factor 2) (UniProt P09038) (P09038 143-288 limits assumed): as above
Binder,Kd [1] [nM],koff [1] [s⁻¹],kon [1] [M⁻¹ s⁻¹],Kd [2] [nM],koff [2] [s⁻¹],kon [2] [M⁻¹ s⁻¹]
"human anti-FGF2 antibody 32L98H (antibody, part only; not given: light chain 32L, human IgG1, V domains shown, part only) VH: QITLKESGPTLVKPTQTLTLTCTFSGFSLSTSGVGVGWIRQPPGEALEWLAVIHWNEANYYSPYLRSRLTITKDTSKNQMVLTVTNMDPVDTATYYCARGANSDSSGRLDAFDIWGQGTMVTVSS",8.53,0.00326,382000,–,–,–
"human anti-FGF2 antibody 62K98H (antibody, human IgG1, V domains shown, Human IgG1 format (AbVec vectors with human gamma1 HC and kappa LC constant regions)) VH: QITLKESGPTLVKPTQTLTLTCTFSGFSLSTSGVGVGWIRQPPGEALEWLAVIHWNEANYYSPYLRSRLTITKDTSKNQMVLTVTNMDPVDTATYYCARGANSDSSGRLDAFDIWGQGTMVTVSS VL: DVVMTQSPLSLPVTLGQPASISCRSSQSLIYSDGNTRLYWFHQRPGQSPRRLIYGVSNRDSGVPDRFSGSGSGTDFTLKISRVEAEDVGVYYCMQSTHWPHTFGQGTKLEIK",–,–,–,9.1,0.00156,171000
"human anti-FGF2 antibody 85L117H (antibody, human IgG1, V domains shown, Human IgG1 format (AbVec vectors with human gamma1 HC and lambda LC constant regions)) VH: QVQLVQSGAELKRPGSSVKVSCRASGDTFKNYAITWVRQAPGQGLEWVGGIDPLVGVPNYTHRFQGRVTITADEPTSTTYMEFRDLTSDDTAVYYCARGVRDQHWSYFDSWGQGTLVTVSS VL: QSVLTQPPSASGTPGQTVNISCSGATSNIGGGSVNWYQQLPGAAPRLLIHSDNERASGVPDRFSGSKSGTSASLAISGLQSEDEADYFCASWDDSLDGHVVFGGGTKVTVL",–,–,–,17,0.000834,49200
